Measurements as given in US20200040039A1 (FUJIFILM, published 2020).
Positions of bridges follow the written chain, without caps; N, C: chain ends. Non-standard residues stand in square brackets, D forms with d. thiazoline = not defined here

Columns and labels:
[1] = biological target: T1, MCL-1 (amino acid 1-172 portion) with a His6 tag, MBP and a TEV protease recognition sequence on the N … (UniProt Q07820 1-172); assay: SPR, Biacore T200, 25 C, Mcl-1 amine-coupled on CM5, peptide as analyte, equilibrium analysis; grade B = KD of 50 µmol/L or more
T1 construct: range 1-172; Expressed in E. coli BL21 (DE3) RIPL, purified on Ni-NTA, dialysed; tags are not reported as removed; Immobilised by amine coupling on a CM5 chip for SPR; A different construct (3xFLAG-tagged, His6/MBP cleaved) was used for panning only; also called target protein; not shown: His6 tag from the pET28a construct; no cleavage is described for this preparation
T1 sequence (Q07820 1-172): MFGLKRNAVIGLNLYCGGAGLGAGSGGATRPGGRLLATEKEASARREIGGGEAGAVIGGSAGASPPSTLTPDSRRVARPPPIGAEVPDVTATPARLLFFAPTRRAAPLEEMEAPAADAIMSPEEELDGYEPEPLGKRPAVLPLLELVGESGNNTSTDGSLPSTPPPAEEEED
Procedure: A buffer obtained by adding dimethylformamide (DMF) or dimethylsulfoxide (DMSO) to a final concentration of 1 vol % to HBS-EP+(manufactured by GE Healthcare Inc.) was used as a running buffer. Mcl-1 was immobilized on a Biacore Sensor Chip Series S Sensor Chip CM5 (manufactured by GE Healthcare Inc.) using an Amine Coupling Kit (manufactured by GE Healthcare Inc.). In order to measure the dissociation constant (KD), each synthetic peptide was added at multiple concentrations to obtain a sensorgram of binding to immobilized Mcl-1.
The analysis of the obtained sensorgram was carried out using T200 evaluation software (manufactured by GE Healthcare Inc.). Solvent correction to DMF or DMSO was carried out, and then the KD was determined by equilibrium value analysis using a sensorgram obtained by subtracting the sensorgram to a flow cell in which Mcl-1 is not immobilized.

[2] = biological target: T1, MCL-1 (amino acid 1-172 portion) with a …; assay: SPR, Biacore T200, Mcl-1 immobilised on CM5, peptide as analyte, equilibrium analysis, as for Table 51; grade A = KD of less than 50 µmol/L

Kd [1] | Kd [2] | Binder
≥ 50 µM |  | CRSWACLWPAFLWY[3‑(6-cyanopyridin-2-yl)Ala]-NH2 (bridge N-15 via thiazoline; cysteine pairing not given here; reading uncertain, MS 1957.6 (M+H); Structure itself only in a drawing) [Cyclic peptide a-5-1]
≥ 50 µM |  | CFALLWPQFLPLAF[3‑(6-cyanopyridin-2-yl)Ala]-NH2 (bridge N-15 via thiazoline; reading uncertain, MS 1821.3 (M+H); Structure itself only in a drawing) [Cyclic peptide a-5-3]
 | < 50 µM | CEYCDPTFWPLFRR[3‑(5-cyanothiophen-3-yl)alanine]-NH2 (bridge N-15 via thiazoline; cysteine pairing not given here; reading uncertain, MS 1993.3 (M+H); Structure itself only in a drawing) [Cyclic peptide a-6-1]
